Data as given in patent publication EP4624492A1 (Shanghai Hongcheng Biopharmaceutical Co., Ltd., dated 2025).
Numbering of substitutions follows the chain as printed. Read-outs that look alike come from different tables or passages of the source. One block for each binder: values may come before it.

Tests used:
human CCR8 [1] = biological target: T1, human CCR8 (human, UniProt P51685 1-355); assay: cell-based or functional assay
human CCR8 [2] = biological target: T1, human CCR8; assay: flow cytometry on 293F-hCCR8 cells
human CCR8 [3] = biological target: T1, human CCR8; assay: flow cytometry on 293F-hCCR8 cells; remark: listed apart in the source
cynomolgus CCR8 [4] = biological target: T2, cynomolgus CCR8 (cynomolgus monkey); assay: flow cytometry on 293T-cynoCCR8 cells
T2 construct: whole, on cells; the constructs of the cell lines are not tied to it word for word; also called cynoCCR8

human CCR8 [5] = biological target: T1, human CCR8; assay: flow cytometry, competition with 10 nM AF647-human CCL1 on 293F-hCCR8 cells
human CCR8 [6] = biological target: T1, human CCR8; assay: as above; remark: listed apart in the source
human CCR8 [7] = biological target: T1, human CCR8; assay: cell-based or functional assay; remark: listed apart in the source
human CCR8 [8] = biological target: T1, human CCR8; assay: cell-based or functional assay; remark: listed apart in the source
cynomolgus CCR8 [9] = biological target: T2, cynomolgus CCR8; assay: flow cytometry on 293T-cynoCCR8 cells; remark: listed apart in the source
human CCR8 [10] = biological target: T1, human CCR8; assay: flow cytometry on CHOK1-hCCR8 cells
human CCR8 [11] = biological target: T1, human CCR8; assay: flow cytometry on HuT78 cells (endogenous CCR8)
human CCR8 [12] = biological target: T1, human CCR8; assay: cell-based or functional assay; remark: listed apart in the source
human CCR8 [13] = biological target: T1, human CCR8; assay: cell-based or functional assay; remark: listed apart in the source
human CCR8 [14] = biological target: T1, human CCR8; assay: cell-based or functional assay; remark: listed apart in the source
human CCR8 [15] = biological target: T1, human CCR8; assay: cell-based or functional assay; remark: listed apart in the source
human CCR8 [16] = biological target: T1, human CCR8; assay: cell-based or functional assay; remark: listed apart in the source

T1 sequence (P51685 whole entry): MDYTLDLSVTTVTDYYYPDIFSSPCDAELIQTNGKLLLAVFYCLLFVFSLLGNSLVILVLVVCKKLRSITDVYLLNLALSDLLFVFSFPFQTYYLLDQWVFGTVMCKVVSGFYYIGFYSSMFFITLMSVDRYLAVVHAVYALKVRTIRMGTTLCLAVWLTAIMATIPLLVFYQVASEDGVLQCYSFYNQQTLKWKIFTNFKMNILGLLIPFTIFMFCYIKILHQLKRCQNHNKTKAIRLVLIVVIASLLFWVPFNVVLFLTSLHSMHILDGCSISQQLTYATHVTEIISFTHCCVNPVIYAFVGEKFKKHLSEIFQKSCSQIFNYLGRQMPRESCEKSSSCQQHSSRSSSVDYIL

B3: 559E1B10_hzH1L1_hIgG1 (antibody)
heavy: not shown
light: EIVLTQSPATLSLSPGERATLSCRASQSISDYLHWYQQKPGQAPRLLLKYVSQSISGIPARFSGSGSGTDFTLTISSLEPEDFAVYYCQNGHSFPLTFGGGTKVEIKRTVAAPSVFIFPPSDEQLKSGTASVVCLLNNFYPREAKVQWKVDNALQSGNSQESVTEQDSKDSTYSLSSTLTLSKADYEKHKVYACEVTHQGLSSPVTKSFNRGEC
notes: Humanized, hIgG1/K
EC50 (human CCR8 [2]): 0.114 µg/mL
EC50 (human CCR8 [10]): 0.036 µg/mL
EC50 (human CCR8 [11]): 15.2 µg/mL
IC50 (human CCR8 [5]): 0.15 µg/mL
IC50 of blockade of CCL1-induced β-arrestin recruitment (human CCR8 [7]): 28.1 µg/mL
EC50 of activation of Jurkat-human FcγRIIIa(158V)-NFAT with CHOK1-hCCR8 target cells (human CCR8 [12]): 0.0265 µg/mL
EC50 of activation of Jurkat-human FcγRIIIa(158V)-NFAT with 293F-hCCR8 target cells (human CCR8 [13]): 0.0133 µg/mL
EC50 (cynomolgus CCR8 [9]): 0.0876 µg/mL
EC50 of activation of Jurkat-human FcγRIIIa(158V)-NFAT with 293F-hCCR8 target cells (human CCR8 [14]): 0.0421 µg/mL

B4: 563E10E12_hzH1L0_hIgG1 (antibody)
heavy: not shown
light: DIVMTQSPLSLPVTPGEPASISCRSSKSLLHSNGITYLFWYLQKPGQSPQLLIYQMSNLASGVPDRFSGSGSGTDFTLKISRVEAEDVGVYYCAQSLELPLTFGGGTKVEIKRTVAAPSVFIFPPSDEQLKSGTASVVCLLNNFYPREAKVQWKVDNALQSGNSQESVTEQDSKDSTYSLSSTLTLSKADYEKHKVYACEVTHQGLSSPVTKSFNRGEC
notes: Humanized, hIgG1/K
EC50 (human CCR8 [2]): 0.103 µg/mL
EC50 (human CCR8 [10]): 0.0376 µg/mL
EC50 (human CCR8 [11]): 0.054 µg/mL
IC50 (human CCR8 [5]): 0.0852 µg/mL
EC50 of ADCC effect (lysis%) by human PBMCs on CHOK1-hCCR8 cells (human CCR8 [15]): 0.00471 µg/mL
IC50 of blockade of CCL1-induced β-arrestin recruitment (human CCR8 [7]): 1.46 µg/mL
EC50 of activation of Jurkat-human FcγRIIIa(158V)-NFAT with CHOK1-hCCR8 target cells (human CCR8 [12]): 0.0299 µg/mL
EC50 of activation of Jurkat-human FcγRIIIa(158V)-NFAT with HuT78 target cells (human CCR8 [16]): 0.0409 µg/mL
EC50 of activation of Jurkat-human FcγRIIIa(158V)-NFAT with 293F-hCCR8 target cells (human CCR8 [8]): 0.0279 µg/mL
EC50 of activation of Jurkat-human FcγRIIIa(158V)-NFAT with 293F-hCCR8 target cells (human CCR8 [13]): 0.0135 µg/mL
EC50 (cynomolgus CCR8 [9]): 0.0227 µg/mL

B5: 563E10E12_hzH1L0_AF (antibody, human IgG1, kappa)
heavy: not shown
light: B4 light
modifications: afucosylated (expressed in ExpiCHO cells with 2F-peracetyl-fucose)
EC50 of ADCC effect (lysis%) by human PBMCs on CHOK1-hCCR8 cells (human CCR8 [15]): 0.00031 µg/mL
EC50 of activation of Jurkat-human FcγRIIIa(158V)-NFAT with HuT78 target cells (human CCR8 [16]): 0.011 µg/mL
EC50 of activation of Jurkat-human FcγRIIIa(158V)-NFAT with 293F-hCCR8 target cells (human CCR8 [13]): 0.0009 µg/mL

B6: 563E10E12_hzH1L0_DE (antibody, human IgG1, kappa)
heavy: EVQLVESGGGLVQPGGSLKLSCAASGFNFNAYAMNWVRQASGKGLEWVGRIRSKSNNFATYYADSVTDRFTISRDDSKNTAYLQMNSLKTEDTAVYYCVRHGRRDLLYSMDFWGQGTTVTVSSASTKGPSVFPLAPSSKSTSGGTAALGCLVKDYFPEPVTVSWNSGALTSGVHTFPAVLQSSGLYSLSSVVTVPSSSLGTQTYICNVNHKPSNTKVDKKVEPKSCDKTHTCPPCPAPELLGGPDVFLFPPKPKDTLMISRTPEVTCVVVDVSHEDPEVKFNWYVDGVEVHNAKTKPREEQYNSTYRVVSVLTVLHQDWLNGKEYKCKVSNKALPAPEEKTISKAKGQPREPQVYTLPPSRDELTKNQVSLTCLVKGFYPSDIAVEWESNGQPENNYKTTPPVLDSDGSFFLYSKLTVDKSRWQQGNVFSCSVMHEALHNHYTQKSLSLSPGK
light: B4 light
EC50 of ADCC effect (lysis%) by human PBMCs on CHOK1-hCCR8 cells (human CCR8 [15]): 0.0006 µg/mL
EC50 of activation of Jurkat-human FcγRIIIa(158V)-NFAT with HuT78 target cells (human CCR8 [16]): 0.0083 µg/mL
EC50 of activation of Jurkat-human FcγRIIIa(158V)-NFAT with 293F-hCCR8 target cells (human CCR8 [13]): 0.0009 µg/mL

B9: 559E1B10_mIgG2a (antibody)
heavy: KVQLQQSGPVLVKPGASVKMSCKASGYTFTDYYVNWMKQNYGKSPEWIGVINPHNGDTRYNQKFKGKATLTVDKSSSTANMELTSLTSGDSAVYYCASWLRRGYYFDSWGQGTTLTVSSAKTTAPSVYPLAPVCGDTTGSSVTLGCLVKGYFPEPVTLTWNSGSLSSGVHTFPAVLQSDLYTLSSSVTVTSSTWPSQSITCNVAHPASSTKVDKKIEPRGPTIKPCPPCKCPAPNLLGGPSVFIFPPKIKDVLMISLSPIVTCVVVDVSEDDPDVQISWFVNNVEVHTAQTQTHREDYNSTLRVVSALPIQHQDWMSGKEFKCKVNNKDLPAPIERTISKPKGSVRAPQVYVLPPPEEEMTKKQVTLTCMVTDFMPEDIYVEWTNNGKTELNYKNTEPVLDSDGSYFMYSKLRVEKKNWVERNSYSCSVVHEGLHNHHTTKSFSRTPGK
light: DIVMTQSPATLSVTPGDRVSLSCRASQSISDYLHWYQQKSHESPRLLLKYVSQSISGIPSRFSGSGSGSDFTLTINSVEPEDVGVYYCQNGHSFPLTFGAGTKLELKRADAAPTVSIFPPSSEQLTSGGASVVCFLNNFYPKDINVKWKIDGSERQNGVLNSWTDQDSKDSTYSMSSTLTLTKDEYERHNSYTCEATHKTSTSPIVKSFNRNEC
notes: also called mIgG2a-subclass chimeric antibody 559E1B10
IC50 of blockade of CCL1-induced β-arrestin recruitment (Tango-H_CCR8-CHO-K1 cells) (human CCR8 [1]): 1.76 µg/mL
EC50 (human CCR8 [3]): 0.1 µg/mL
EC50 (cynomolgus CCR8 [4]): 0.0819 µg/mL
IC50 (human CCR8 [6]): 0.0649 µg/mL

The remaining lines, values ahead:

IC50 of blockade of CCL1-induced β-arrestin recruitment (Tango-H_CCR8-CHO-K1 cells) (human CCR8 [1]): 0.26 µg/mL
EC50 (human CCR8 [2]): 0.139 µg/mL
EC50 (human CCR8 [3]): 0.273 µg/mL
EC50 (cynomolgus CCR8 [4]): 0.305 µg/mL
IC50 (human CCR8 [5]): 0.0959 µg/mL
IC50 (human CCR8 [6]): 0.273 µg/mL
B1: 27B9-1G3_hIgG1 (antibody, V domains shown)
VH: EIQLQQSGPELEKPGASVKISCKASGYSFTGYNMNWVKKSNGKSLEWIGNIDPYYGGTNYNQKFKGKATLTVDKSSSTAYMQLKSLTSEDSAVYYCARETWFITTGVIKKGFYFDYWGQGTTLTVSS
VL: EIVLTQSPTTMAASPGEKITLACSASSIISSNYLHWYQQKPGFSPKLLIYRTSSLASGVPARFSGSGSGTSYSLTIGTMEAEDVATYYCQQGSSIPRTFGGGTKLEIKR
notes: also called hIgG1-subclass chimeric antibody 27B9-1G3

EC50 (human CCR8 [2]): 0.073 µg/mL
EC50 (human CCR8 [3]): 0.0273 µg/mL
IC50 (human CCR8 [5]): 0.0513 µg/mL
IC50 of blockade of CCL1-induced β-arrestin recruitment (human CCR8 [7]): 1.72 µg/mL
IC50 (human CCR8 [6]): 0.0295 µg/mL
EC50 of activation of Jurkat-human FcγRIIIa(158V)-NFAT with 293F-hCCR8 target cells (human CCR8 [8]): 0.0216 µg/mL
EC50 (cynomolgus CCR8 [9]): 0.0473 µg/mL
B2: 563E10E12_hIgG1 (antibody)
heavy: not shown
light: DVVMTQAAFSNPVTLGTSTSISCRSSKSLLHSNGITYLFWYLQKPGQSPQLLIYQMSNLASGVPDRFSGSGSGTDFTLRISRVEAEDVGVYYCAQSLELPLTFGGGTKLEIKRTVAAPSVFIFPPSDEQLKSGTASVVCLLNNFYPREAKVQWKVDNALQSGNSQESVTEQDSKDSTYSLSSTLTLSKADYEKHKVYACEVTHQGLSSPVTKSFNRGEC
notes: also called hIgG1-subclass chimeric antibody 563E10E12

EC50 of ADCC effect (lysis%) by human PBMCs on CHOK1-hCCR8 cells (human CCR8 [15]): 0.00039 µg/mL
EC50 of activation of Jurkat-human FcγRIIIa(158V)-NFAT with HuT78 target cells (human CCR8 [16]): 0.0057 µg/mL
EC50 of activation of Jurkat-human FcγRIIIa(158V)-NFAT with 293F-hCCR8 target cells (human CCR8 [13]): 0.0007 µg/mL
B7: 563E10E12_hzH1L0_DLE (antibody, human IgG1, kappa)
heavy: EVQLVESGGGLVQPGGSLKLSCAASGFNFNAYAMNWVRQASGKGLEWVGRIRSKSNNFATYYADSVTDRFTISRDDSKNTAYLQMNSLKTEDTAVYYCVRHGRRDLLYSMDFWGQGTTVTVSSASTKGPSVFPLAPSSKSTSGGTAALGCLVKDYFPEPVTVSWNSGALTSGVHTFPAVLQSSGLYSLSSVVTVPSSSLGTQTYICNVNHKPSNTKVDKKVEPKSCDKTHTCPPCPAPELLGGPDVFLFPPKPKDTLMISRTPEVTCVVVDVSHEDPEVKFNWYVDGVEVHNAKTKPREEQYNSTYRVVSVLTVLHQDWLNGKEYKCKVSNKALPLPEEKTISKAKGQPREPQVYTLPPSRDELTKNQVSLTCLVKGFYPSDIAVEWESNGQPENNYKTTPPVLDSDGSFFLYSKLTVDKSRWQQGNVFSCSVMHEALHNHYTQKSLSLSPGK
light: B4 light

EC50 (human CCR8 [2]): 0.124 µg/mL
EC50 (human CCR8 [10]): 0.0423 µg/mL
EC50 (human CCR8 [11]): 0.0545 µg/mL
IC50 (human CCR8 [5]): 0.0835 µg/mL
IC50 of blockade of CCL1-induced β-arrestin recruitment (human CCR8 [7]): 1.61 µg/mL
EC50 of activation of Jurkat-human FcγRIIIa(158V)-NFAT with 293F-hCCR8 target cells (human CCR8 [8]): 0.0283 µg/mL
EC50 of activation of Jurkat-human FcγRIIIa(158V)-NFAT with 293F-hCCR8 target cells (human CCR8 [13]): 0.0089 µg/mL
EC50 (cynomolgus CCR8 [9]): 0.0264 µg/mL
B8: 563E10E12_hzH1L1_hIgG1 (antibody)
heavy: not shown
light: B4 light with I2V
notes: Humanized, hIgG1/K
